From the DeepSol protein solubility set

Assay: soluble on expression in E. coli; label from the status in PepcDB or PDB records
For “MGSSHHHHHHSSGLVPRGSSGHVGLRNLGNTCFLNAVLQCLSSTRPLRDFCLRRDFRQEVPGGGRAQELTEAFADVIGALWHPDSCEAVNPTRFRAVFQKYVPSFSGYSQQDAQEFLKLLMERLHLEINRRGRRAPPILANGPVPSPPRRGGALLEEPELSDDDRANLMWKRYLEREDSKIVDLFVGQLKSCLKCQACGYRSTTFEVFCDLSLPIPKKGFAGGKVSLRDCFNLFTKEEELESENAPVCDRCRQKTRSTKKLTVQRFPRILVLHLNRFSASRGSIKKSSVGVDFPLQRLSLGDFASDKAGSPVYQLYALCNHSGSVHYGHYTALCRCQTGWHVYNDSRVSPVSENQVASSEGYVLFYQLMQEPP”, the “soluble on expression in E. coli” value was “soluble”. For “MGSSHHHHHHSSGRENLYFQGHMSNTYQKRKASKEYGLYNQCKKLNDDELFRLLDDHNSLKRISSARVLQLRGGQDAVRLAIEFCSDKNYIRRDIGAFILGQIKICKKCEDNVFNILNNMALNDKSACVRATAIESTAQRCKKNPIYSPKIVEQSQITAFDKSTNVRRATAFAISVINDKATIPLLINLLKDPNGDVRNWAAFAININKYDNSDIRDCFVEMLQDKNEEVRIEAIIGLSYRKDKRVLSVLCDELKKNTVYDDIIEAAGELGDKTLLPVLDTMLYKFDDNEIITSAIDKLKRS”, the “soluble on expression in E. coli” value was “soluble”. For “MGSTSTPDSSTNRLQDKVAIITGGAGGIGETTAKLFVRYGAKVVIADIADDHGQKVCNNIGSPDVISFVHCDVTKDEDVRNLVDTTIAKHGKLDIMFGNVGVLSTTPYSILEAGNEDFKRVMDINVYGAFLVAKHAARVMIPAKKGSIVFTASISSFTAGEGVSHVYTATKHAVLGLTTSLCTELGEYGIRVNCVSPYIVASPLLTDVFGVDSSRVEELAHQAANLKGTLLRAEDVADAVAYLAGDESKYVSGLNLVIDGGYTRTNPAFPTALKHGLA”, the “soluble on expression in E. coli” value was “soluble”. For “MGTRNVRPGDRISAAIVAITDDSVFVATGSKVDGVIDRRELEEADGSLPYAVGDRVDLYVTAVNGQEIRLSKGLSGQGGAAVLEEARDSGVPVEGRVTGTCKGGYNVDVLRKRAFCPGSQIDLHQLEDAESVVGQTFQFLVTRVEQHGRNIVVSRRALLERERDAALATFLEGVKEGDVLEGTVTRLAPFGAFVEIAPGVDGMVLEHHHHHH”, the “soluble on expression in E. coli” value was “soluble”. With “MGTSVTPNIFDFLIKIDPFDKLPEPVVESIANSVKVKYLVRGETIGFSALCDQRYLYIIRTGAIEQRTPNGELRARLGQDDQFGFTFLDPLENAEDGYQAEAIEDSLLYLIPHSELKLVSEEHPEFADYFAAQANVRLSSAVKYVCRKEEKGLFFRTVGEIASENIAIVDVNDSIRSVAQTMCGKQRSSCAVVMKEGEIIGLVTDRDMTKSVVAQDMDTNQPIADVMTPNPVLIEDDAKVIQAISLMLQYNIRCLPVVHGKQVKGLLTTTHLVHNHRTQSLFLIEKIKYASSLNALAALKEERQTIFQALVESGVSAEIQGRVMSMIMDAFTRRIIQLNEELLGPPPCDYAWLVAGSHARNEVHMLSDQDSAIVLSDDATEEHKLYFTHLAMRVCNGLAACGYPLCDGKYMAASPKWCQPIRRWKEYYQKWVASPEYNKLLSISVFLEVRAIHGNREFVDQIQQHLHDCIQKSPSFIPALVRDAIDTQPPLGIFNNLVLEKGGENSNTLNIKKYALNLIIDLARIFSLAAGGSLTGTEERFRYAAQHGTLSKDSVENIIGAYRFITQVRFRHQLNAILAGTTPDNHIAPDDFSSFERKHLKDAFKIISELQDVAKLKFVKGA” the “soluble on expression in E. coli” value was “not soluble”. With “MGVEIQSPQEQSSYTVEQLVALNPFNPEILPDLENYVNVTSQTYSLEVNLCLLRLYQFEPERMNTHIVARILVKALMAMPTPDFSLCLFLIPERVQMEEQFKSLIVLSHYLETGRFQQFWDEAAKNRHILEAVPGFEQAIQAYASHLLSLSYQKVPRSVLAEAVNMDGASLDKFIEQQVTNSGWIVEKEGGSIVLPQNEFNHPELKKNTGENVPLEHIARIFPILG” the “soluble on expression in E. coli” value was “not soluble”. With “MGVITDDVTIAQQALTHYDVSDNASLRLLNLSENATYLVEDGEHQSILRVHRQDYHQPHEIESELDWLAALRTDSDVTVPTVVPARDGRRVVTVDPADSDAVPRHVVHFEMVGGAEPDEESLTLDDFQTLGRITASLHEHSQRWTRPAGFGRFSWDWEHCLGDTPRWGRWQDAEGVGASETALLTRAQDLLHRKLEEYGSGPDRYGLIHADLRLANLLVDSSTPQRTITVIDFDDCGFGWYFYDFGTAVSFIEHDPRLGEWQESWVAGYRSRRELPAADEAMLPSFVFLRRLLLLAWMGSHTHSRESATKAISYAAGSCALAERYLSSDGLRLT” the “soluble on expression in E. coli” value was “not soluble”. For “MGVVLIDGSTVRSFVDDEEQFKKSVDERFAALDLNKDGVLSRSELRKAFESMRLLESHFGVDVVTPQDELTNLYDSIFEKFDTDQSGSVDLEEFRSEMKKIVLAIADGLGSCPITMVLDDDDDNFLKKAADLEASKLEKASS”, the “soluble on expression in E. coli” value was “soluble”. In the case of “MGWTCERVELLKKFWSEGLSASQIAAQLGGVSRNAVIGKVHRLKLPGRGKTAQGGGRVQKALVGVSSSPVRMRRTPSTVLPTNTASCSVGATALKVDVVVEDVTEVDLPEKSNVVVPISRQLNLLQLSENTCRWPVGDPLSPDFHFCGADSGENSPYCAFHAKIAFQPISERRRIRILEHHHHHH”, the “soluble on expression in E. coli” value was “not soluble”. In the case of “MHENKYLTIYHDLISRIRRGEWKAYDKLPSEHELAARYETSRETIRKALHLLSEHGYIQKMKGKGSIVLDVGKYDFPVSGLVSFKELAQTMKQPVRTIVHELAIIKPDRELRQHLRASSKDEVWKVVRVREIGGERIILDKDFFLKKHVPLLTKEICEDSIYEYLETKLHLPISFAKKEISVDEATDEDRRYLDLHGDDRVVVVKNYVYLSDAALFQYTESRHRLDKFRFVDFARRK”, the “soluble on expression in E. coli” value was “not soluble”. In the case of “MHFETVIGLEVHVELKTDSKMFSPSPAHFGAEPNSNTNVIDLAYPGVLPVVNKRAVDWAMRAAMALNMEIATESKFDRKNYFYPDNPKAYQISQFDQPIGENGYIDIEVDGETKRIGITRLHMEEDAGKSTHKGEYSLVDLNRQGTPLIEIVSEPDIRSPKEAYAYLEKLRSIIQYTGVSDVKMEEGSLRCDANISLRPYGQEKFGTKAELKNLNSFNYVRKGLEYEEKRQEEELLNGGEIGQETRRFDESTGKTILMRVKEGSDDYRYFPEPDIVPLYIDDAWKERVRQTIPELPDERKAKYVNELGLPAYDAHVLTLTKEMSDFFESTIEHGADVKLTSNWLMGGVNEYLNKNQVELLDTKLTPENLAGMIKLIEDGTMSSKIAKKVFPELAAKGGNAKQIMEDNGLVQISDEATLLKFVNEALDNNEQSVEDYKNGKGKAMGFLVGQIMKASKGQANPQLVNQLLKQELDKRMAGDPLEHHHHHH”, the “soluble on expression in E. coli” value was “not soluble”. For “MHFKDLGLHDYTLKNLMYENNCCKFYDAVDENNISYVLKFVPSDVTSEGDTFPFVDRFQVKEGVFLVYSSNDFGKEGTDYFTYTGSGGNEVHISGTSSEAGIKPQFIETCHPKHLKRGTKEQEDINSSTSKKSAVINNFSGEKTPNPRPQSSNISERETYVGILNVKCKNKNSSKIRSEKLVSSVIETKHTPGLASILSKEGTTYPNNADGKHISIVNPSSKIYHSSHKQIVKTPIPKSGLSPIERCPFNGQNIKCYSPRPLDHESPQRDFNNNFQLRILKSSVLQRRQSTQNS”, the “soluble on expression in E. coli” value was “soluble”.
